Data on 3 molecules can be found in PMC6906086.

For one data set, the target named is Lsr2BD T112D (Mycobacterium tuberculosis H37Rv, UniProt P9WIP7 66-112, T112D). Kind of data set: fluorescence anisotropy. Particulars: protein: recombinant, blunt.
In the next data set the target is Lsr2BD T112A (Mycobacterium tuberculosis H37Rv, UniProt P9WIP7 66-112, T112A). Description: fluorescence anisotropy; pH 7.5; 4 nM DNA. Particulars: protein: recombinant; label: 5' Alexa Fluor 488; blunt.
Another data set has as its target Lsr2 (Mycobacterium tuberculosis H37Rv, UniProt P9WIP7 1-112). Description: EMSA; 0.95-7.6 uM Lsr2. Particulars: protein: recombinant; (pET15-TEV, Ni-NTA); chain copies: 2; blunt.
The target of the next data set is Lsr2BD WT (Mycobacterium tuberculosis H37Rv, UniProt P9WIP7 66-112). Description: fluorescence anisotropy. Particulars: protein: recombinant; tags: 6xHis; blunt.

B1: AT-rich 14-mer (dsDNA)
DNA 1: CGCGCATATATGCG
DNA 2: CGCATATATGCGCG
For the molecule B1, the binding result in the data set with Lsr2BD T112D (label: 5' Alexa Fluor 488) is recorded as “no binding”. Besides, the Kd in the data set with Lsr2BD T112A stood at 20 ± 8 nM.

B2: leuS MUT (dsDNA)
DNA 1: AACTCGGCGAGGTCGGTCAG
DNA 2: CTGACCGACCTCGCCGAGTT
For B2, the binding result with Lsr2 is “binds”.

B3: GC-rich fragment (leuS MUT sequence), anisotropy (dsDNA)
DNA 1: AACTCGGCGAGGTCGGTCAG
DNA 2: CTGACCGACCTCGCCGAGTT
On to B3, for which the binding result with Lsr2BD WT and with Lsr2BD T112D was “no binding” each time.
